Reference: patent publication US20100280227A1 (Genentech, published 2010)
Blank lines part the entries; values can stand above or below the binder they belong to.

Assays:
[1] = target: T1, human BR3 expressed on cells (human, UniProt Q96RJ3 1-184); experiment: BJAB cells, direct binding
T1 construct: whole, on cells; also called BR3 on BJAB cells; cell surface BR3
Protocol: (§1) Direct and competitive binding assays were performed as follows. For the direct binding assay, IgG antibody samples were serially diluted in cold assay buffer to concentrations ranging between 300-0.02 nM. Samples (100 μl) were added to the pelleted cells, and the plates were incubated for 45 min on ice. An additional 100 μl assay buffer was then added to each well, and the plates were centrifuged at 1200 rpm for 5 min at 4° C. After carefully aspirating the supernatant, the cells were washed two additional times with 200 μl assay buffer. An anti-mouse IgG Fc-HRP or goat anti-human IgG Fc-HRP, as appropriate, was diluted 1/10,000 in cold assay buffer was added (100 μl/well, Jackson ImmunoResearch, West Grove, Pa.), and the plates were incubated on ice for 45 min. Following two washes with 200 μl cold assay buffer, tetramethyl benzidine (TMB, Kirkegaard & Perry Laboratories, Gaithersburg, Md.) was added, and color was allowed to develop for 10 min. One hundred microliters 1 M H₃PO₄ was added to stop the reaction. The plates were then read on a microplate reader at 450 nm with a 620 nm reference. In the direct binding assay, the indicated concentrations of mAbs were added to BJAB cells and bound mAb was detected.

[2] = target: T2, variant human BR3-Fc fusion; experiment: SPR, vBR3-Fc on chip;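 note: Anti-BR3 antibodies passed over chip-bound BR3-Fc in PBS with 0.05% polysorbate 20, on and off rates fitted together globally to a 1:1 binding model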
T2 construct: produced in CHO cells; also called vBR3-Fc; vhBR3-Fc
Protocol: After coupling, unoccupied sites on the chip were blocked by injecting 20 μl of 1M ethanolamine, pH 8.5. The running buffer was PBS containing 0.05% polysorbate 20. […] The binding surface was regenerated by injecting 20-30 μl of 10 mM glycine.HCl (pH 1.5). […] Data were analyzed using a 1:1 binding model using global fitting. The association and dissociation rate constants were fitted simultaneously (BIAevaluation software).
A high flow rate was used in order to minimize mass transport effects.

[3] = target: T2, variant human BR3-Fc fusion; experiment: competition ELISA on vhBR3-Fc against biotinylated 11G9
[4] = target: T1, human BR3 expressed on cells; experiment: BJAB cell competitive binding assay against biotin-BAFF
Protocol: BJAB cells, a human Burkitt lymphoma cell line, were cultured in RPMI media supplemented with 10% FBS, penicillin (100 U/ml, Gibco-Invitrogen, Carlsbad, Calif.), streptomycin (100 μg/ml, Gibco), and L-glutamine (10 mM). […] For binding assays, cells were washed with cold assay buffer (phosphate buffered saline (PBS), pH 7.4) containing 1% fetal bovine serum (FBS)). […] The plates containing the cells were centrifuged at 1200 rpm for 5 min at 4° C., and the supernatant was carefully aspirated away from the cell pellets. […] For these experiments, full length antibodies (IgG) were used.
(§2) The diluted samples were added to the pelleted BJAB cells in 96 well plates as described above. After 45 min incubation on ice, the cells were washed twice with 200 μl cold assay buffer, and streptavidin-HRP (AMDEX, Amersham Biosciences, Piscataway, N.J.) diluted 1/5,000 in assay buffer was added (100 μl/well). The plates were incubated for a final 45 min on ice. After washing twice with cold assay buffer, color was developed using TMB, the reaction was stopped with H₃PO₄, and the plates were read as described above.

[5] = target: T1, human BR3 expressed on cells; experiment: BJAB cells, competition with biotin-BAFF
Protocol: as §2

[6] = target: T1, human BR3 expressed on cells; experiment: BJAB cell direct binding assay, anti-mouse IgG Fc-HRP
Protocol: For binding assays, cells were washed with cold assay buffer (phosphate buffered saline (PBS), pH 7.4) containing 1% fetal bovine serum (FBS)). […] The plates containing the cells were centrifuged at 1200 rpm for 5 min at 4° C., and the supernatant was carefully aspirated away from the cell pellets. […] For these experiments, full length antibodies (IgG) were used.
as §1

[7] = target: T2, variant human BR3-Fc fusion; experiment: competition ELISA on vhBR3-Fc against biotinylated 9.1
[8] = target: T3, human BAFF (residues 82-285) (human, UniProt Q9Y275 82-285); experiment: BJAB cell competitive binding assay: soluble BR3-Fc keeps biotin-BAFF from BR3 on the cells
T3 construct: range 82-285; also called biotin-BAFF; biotinylated BAFF

[9] = target: T4, human BR3 displayed on phage, E23 alanine-scan mutant (human, UniProt Q96RJ3 1-61, limits assumed); experiment: shotgun alanine scan of phage-displayed BR3; F against wild type;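 note: Phage-displayed BR3 shotgun alanine libraries, two selection rounds for anti-BR3 antibody binding, normalized to a display selection, F above 1 marks a harmful substitution, below 1 a beneficial one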
T4 construct: One position of the shotgun alanine scan of BR3 on phage
Description: (§3) At the sites of mutation, wild-type codons were replaced with the corresponding shotgun alanine codon (Weiss, supra). […] Library 1 encoded shotgun codons at positions 17, 18, 20-23, 25, 27, 28, 30, and 33, while library 2 encoded shotgun codons at positions 26, 29, 31, 34, and 36-42. Each library contained 2×10⁹ members, allowing for complete representation of the theoretical diversity (>10⁴-fold excess).
(§4) The display selection was included in order to normalize the anti-BR3 antibody-binding selection for expression differences between library members. Phage eluted from each target were propagated in E. coli XL 1-blue; amplified phage were used for selection against the same target as in the previous round. After two rounds of selection, 48 individual clones from each library and selection were grown in a 96-well format in 400 L of 2YT medium supplemented with carbenicillin and KO7 helper phage.
(§5) F-values were calculated as previously described (Weiss, supra; Gordon, supra). […] Deleterious mutations have ratios >1, while advantageous mutations have ratios <1; boldface indicates a >10-fold effect.

[10] = target: T5, human BR3 displayed on phage, P18 alanine-scan mutant (human, UniProt Q96RJ3 1-61, limits assumed); experiment: as above
T5 construct: One position of the shotgun alanine scan of BR3 on phage
Description: as §3, §4, §5

[11] = target: T6, human BR3 displayed on phage, L37 alanine-scan mutant (human, UniProt Q96RJ3 1-61, limits assumed); experiment: as above
T6 construct: One position of the shotgun alanine scan of BR3 on phage
Description: as §3, §4, §5

[12] = target: T7, human BR3 displayed on phage, F25 alanine-scan mutant (human, UniProt Q96RJ3 1-61, limits assumed); experiment: as above
T7 construct: One position of the shotgun alanine scan of BR3 on phage
Description: as §3, §4, §5

[13] = target: T8, human BR3 displayed on phage, R39 alanine-scan mutant (human, UniProt Q96RJ3 1-61, limits assumed); experiment: as above
T8 construct: One position of the shotgun alanine scan of BR3 on phage
Description: as §3, §4, §5

[14] = target: T9, human BR3 displayed on phage, R42 alanine-scan mutant (human, UniProt Q96RJ3 1-61, limits assumed); experiment: as above
T9 construct: One position of the shotgun alanine scan of BR3 on phage
Description: as §3, §4, §5

[15] = target: T10, human BR3 displayed on phage, H31 alanine-scan mutant (human, UniProt Q96RJ3 1-61, limits assumed); experiment: as above
T10 construct: One position of the shotgun alanine scan of BR3 on phage
Description: as §3, §4, §5

[16] = target: T11, human BR3 displayed on phage, V29 alanine-scan mutant (human, UniProt Q96RJ3 1-61, limits assumed); experiment: as above
T11 construct: One position of the shotgun alanine scan of BR3 on phage
Description: as §3, §4, §5

[17] = target: T12, human BR3 displayed on phage, R30 alanine-scan mutant (human, UniProt Q96RJ3 1-61, limits assumed); experiment: as above
T12 construct: One position of the shotgun alanine scan of BR3 on phage
Description: as §3, §4, §5

[18] = target: T13, human BR3 displayed on phage, P21 alanine-scan mutant (human, UniProt Q96RJ3 1-61, limits assumed); experiment: as above
T13 construct: One position of the shotgun alanine scan of BR3 on phage
Description: as §3, §4, §5

[19] = target: T14, human BR3 displayed on phage, P41 alanine-scan mutant (human, UniProt Q96RJ3 1-61, limits assumed); experiment: as above
T14 construct: One position of the shotgun alanine scan of BR3 on phage
Description: as §3, §4, §5

[20] = target: T15, human BR3 displayed on phage, L38 alanine-scan mutant (human, UniProt Q96RJ3 1-61, limits assumed); experiment: as above
T15 construct: One position of the shotgun alanine scan of BR3 on phage
Description: as §3, §4, §5

[21] = target: T16, human BR3 displayed on phage, T40 alanine-scan mutant (human, UniProt Q96RJ3 1-61, limits assumed); experiment: as above
T16 construct: One position of the shotgun alanine scan of BR3 on phage
Description: as §3, §4, §5

[22] = target: T17, human BR3 displayed on phage, T17 alanine-scan mutant (human, UniProt Q96RJ3 1-61, limits assumed); experiment: as above
T17 construct: One position of the shotgun alanine scan of BR3 on phage; the F value gives the effect of this change against wild type; See m1 for the parent
Description: as §3, §4, §5

[23] = target: T18, human BR3 displayed on phage, G36 alanine-scan mutant (human, UniProt Q96RJ3 1-61, limits assumed); experiment: as above
T18 construct: One position of the shotgun alanine scan of BR3 on phage
Description: as §3, §4, §5

[24] = target: T19, human BR3 displayed on phage, D26 alanine-scan mutant (human, UniProt Q96RJ3 1-61, limits assumed); experiment: as above
T19 construct: One position of the shotgun alanine scan of BR3 on phage
Description: as §3, §4, §5

[25] = target: T20, human BR3 displayed on phage, V20 alanine-scan mutant (human, UniProt Q96RJ3 1-61, limits assumed); experiment: as above
T20 construct: One position of the shotgun alanine scan of BR3 on phage
Description: as §3, §4, §5

[26] = target: T21, human BR3 displayed on phage, L28 alanine-scan mutant (human, UniProt Q96RJ3 1-61, limits assumed); experiment: as above
T21 construct: One position of the shotgun alanine scan of BR3 on phage
Description: as §3, §4, §5

[27] = target: human BR3 displayed on phage, mutated at A34 in the alanine scan (human, UniProt Q96RJ3 1-61, limits assumed); experiment: as above
Description: as §3, §4, §5

[28] = target: T22, human BR3 displayed on phage, L27 alanine-scan mutant (human, UniProt Q96RJ3 1-61, limits assumed); experiment: as above
T22 construct: One position of the shotgun alanine scan of BR3 on phage
Description: as §3, §4, §5

[29] = target: T23, human BR3 displayed on phage, V33 alanine-scan mutant (human, UniProt Q96RJ3 1-61, limits assumed); experiment: as above
T23 construct: One position of the shotgun alanine scan of BR3 on phage
Description: as §3, §4, §5

T3 sequence (Q9Y275 82-285 limits assumed): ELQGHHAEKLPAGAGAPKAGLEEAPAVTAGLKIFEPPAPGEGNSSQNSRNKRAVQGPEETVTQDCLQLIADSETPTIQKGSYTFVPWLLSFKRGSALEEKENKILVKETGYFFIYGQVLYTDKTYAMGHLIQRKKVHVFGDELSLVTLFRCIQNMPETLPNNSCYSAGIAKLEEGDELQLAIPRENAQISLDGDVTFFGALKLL

EC50 [1]: 0.54 nM
Kd [2]: 0.61 nM
IC50 (read off the curve) [3]: ~0.1 µg/mL
IC50 [4]: 0.86 nM
IC50 [5]: 1.3 nM
EC50 [6]: 0.46 nM
IC50 (read off the curve) [7]: ~0.6 µg/mL
B1: murine monoclonal antibody 9.1 (antibody, V domains shown)
VH: EVKLVESGGGLVQPGGSLRLSCAISGFTVTAYYMSWVRQPPGKALEWLGFIRDKANGYTTEYNPSVKGRFTISRDNSQSIFYLQMNTLRAEDSATYYCAQVRRALDYWGQGTTVTVSA
VL: DIVMSQSPSSLAVSVGEKVTMSCKSSQSLLYSSNQNNYLAWYQQKPGQSPKLLIYWASTRESGVPDRFTGSGSGTDFTLTISSVKAEDLAVYYCQQYYTYPYTFGGGT
notes: mouse hybridoma IgG; also called 9.1 IgG; mu9.1

IC50 [8]: 12.7 nM
B2: mouse BR3-Fc (Fc fusion)
chain: STGARRLRVRSQRSRDSSVPTQCNQTECFDPLVRNCVSCELFHTPDTGHTSSLEPGTALQPQEGQVTGDKKIVPRDCGCKPCICTVPEVSSVFIFPPKPKDVLTITLTPKVTCVVVDISKDDPEVQFSWFVDDVEVHTAQTQPREEQFNSTFRSVSELPIMHQDWLNGKEFKCRVNSAAFPAPIEKTISKTKGRPKAPQVYTIPPPKEQMAKDKVSLTCMITDFFPEDITVEWQWNGQPAENYKNTQPIMNTNGSYFVYSKLNVQKSNWEAGNTFTCSVLHEGLHNHHTEKSLSHSPGK
notes: (BR3 ECD fused to a murine Fc); also called mBR3-Fc; murine BR3-Fc
binding result [6]: no binding (tested: about 35 ng/ml as the axis is labelled)

EC50 [1]: 0.19 nM
IC50 (read off the curve) [3]: ~0.2 µg/mL
IC50 [4]: 0.29 nM
IC50 [5]: 0.38 nM
EC50 [6]: 0.17 nM
F value [9]: 6.9
F value [10]: 0.5
F value [11]: 0.7
F value [12]: 38
F value [13]: 3.1
F value [14]: 0.9
F value [15]: 2.8
F value [16]: 1
F value [17]: 1.7
F value [18]: 40
F value [19]: 1.7
F value [20]: 0.9
F value [21]: 0.5
F value [22]: 0.5
F value [23]: 1.8
F value [24]: 8.5
F value [25]: 1.1
F value [26]: 0.4
F value [27]: 32
F value [28]: 1.1
F value [29]: 24
B3: murine monoclonal antibody 11G9 (antibody, V domains shown)
VH: DVQLQESGPSLVKPSQTLSLTCSVTGDSITSGYWNWIRKFPGNKLEYMGYISYSGSTYYNPSLKSRISITRDTSKNQFYLQLLSVTTEDTATYYCAGLDGLYWYFDVWGAGTLVTVSS
VL: DIVMTQTPLSLPVSLGDQASISCRSSQSLVHSNGNTYLHWYLQKPGQSPKLLIYKVSNRFSGVPDRFSGSGSGTDFTLKISRVEAEDLGVYFCSQSTHVPPFTFGSGT
notes: mouse hybridoma IgG; also called mu11G9
